Results on six substances are retold here after patent publication US20230398228A1, “ERIBULIN-BASED ANTIBODY-DRUG CONJUGATES AND METHODS OF USE” (EISAI R&D MANAGEMENT CO., LTD., priority 2016, published 2023).

The subject of one series is IGROV1 cells. The experiment in a line: Crystal Violet cytotoxicity assay (Example 4), IGROV1. Conditions: mean of replicate experiments, read-out: Cytotoxicity IC50 (nM), IGROV1 (FR^hi, MSLN^neg). The format is cell-based, human. As for the experimental part: (§1) Test reagents were serial diluted 1:3 in 2 mL deep-well dilution plates, starting at 200 nM (10 dilutions total). […] Medium was then discarded. […] Plates were read at 570 nm. Data was analyzed using GraphPad Prism 6.

A further series relates to NCI-H2110 cells. The experiment in a line: Crystal Violet cytotoxicity assay (Example 4), NCI-H2110. The format is cell-based, human. Particulars: mean of replicate experiments, read-out: Cytotoxicity IC50 (nM), NCI-H2110 (FR^med, MSLN^med). As for the experimental part:
as §1

Series [1] addresses Recombinant human folate receptor alpha (Homo sapiens, UniProt P15328). Description: ELISA, folate receptor alpha. The format is binding. Conditions: MORAb-003 and its ADCs. As to the method: (§2) Coating solution was discarded and the plates were washed three times using 1×PBS with 0.05% Tween-20 (PBST) buffer. Plates were blocked in 300 μL blocking buffer (1% BSA in PBST) at room temperature for 2 hours on an orbital shaker. […] Blocking buffer was discarded and 100 μL/well of diluted antibody was added to the plates. Plates were incubated at room temperature for 2 hours on an orbital shaker. Antibody solution was discarded and plates were washed three times using PBST. 100 μL/well of goat-anti-human IgG (H+L)-HRP (1:10,000 dilution in blocking buffer) solution was added to the plates, and plates were incubated at room temperature for 1 hour on an orbital shaker. Secondary antibody solution was discarded and plates were washed three times using PBST. 100 μL/well of QuantaBlu fluorogenic peroxidase substrate working solution (Thermo, Cat No. 15169) was added to the plates, and plates were incubated at room temperature for 30 min. Fluorescence was read at excitation 325 nm/emission 420 nm using a SpectraMax M5 (Molecular Devices). Data was analyzed using SoftMaxPro 5.4.2 software with 4-parameter fitting.
On the technique in general: In an ELISA, binding on a coated surface is turned into a signal by an enzyme label.

For another series, the system named is A431 cells. The experiment in a line: Crystal Violet cytotoxicity assay (Example 4), A431 (parental). The format is cell-based, human. Conditions: mean of replicate experiments, read-out: Cytotoxicity IC50 (nM), A431 (FR^neg, MSLN^neg). As for the experimental part: Test reagents were serial diluted 1:3 in 2 mL deep-well dilution plates, starting at 200 nM (10 dilutions total). […] Medium was then discarded. […] Plates were read at 570 nm. Data was analyzed using GraphPad Prism 6. […]
MAL-PEG2-Val-Cit-PAB-eribulin (ER-001159569) was conjugated to eight different anti-human mesothelin antibodies (Table 1). Binding affinities of the parental antibodies were determined by BIAcore analysis, as described above in section 1.6.1. Aggregation levels for all anti-human mesothelin ADCs were determined by SEC-HPLC and the DAR was analyzed using HIC-HPLC. In vitro potency was evaluated using a Crystal Violet cell-based cytotoxicity assay in A3 (A431 stabily transfected with human mesothelin (MSLN), MSLN^hi), OVCAR3 (human ovarian, MSLN^hi), HEC-251 (human endometroid, MSLN^med), H226 (human lung squamous cell mesothelioma, MSLN^lo), and A431 parental (MSLN^neg) cells.

Series [2] in a line: SEC-HPLC aggregation analysis. The format is physicochemical. As for the experimental part: The antibody aggregation was analyzed by size-exclusion, high-performance liquid chromatography (SEC-HPLC) using an Agilent 1100. The mAb was diluted to 1 mg/mL in DPBS. The antibody (20 μL) was injected onto a TSKgel® SuperSW guard column (4.6 mm×3.5 cm, 4 μm pore size, Tosoh Bioscience), followed by a TSKgel® SuperSW3000 column (4.6 mm×30 cm, 4 μm pore size), eluted from the column with 0.1 M sodium phosphate containing 0.15 M NaCl and 0.05% NaN3, at pH 7.4, at a flow rate of 0.3 mL/min for 20 min. All data were analyzed using Agilent ChemStation software. Percent aggregation was calculated as [PAaggregate/PAtotal]*100, where PA=integrated peak area.
ADC was diluted to 1 mg/mL in DPBS. ADC (10 μL) was then injected onto an Advanced SEC 300A guard column (4.6 mm×3.5 cm, 2.7 μm pore size, Agilent), followed by a AdvancedBio 300A column (4.6 mm×30 cm, 2.7 μm pore size). ADC was eluted from the column with 0.1 M sodium phosphate containing 0.15 M NaCl and 5% IPA, pH 7.4 at a flow rate of 0.25 mL/min for 28 min. All data were analyzed using Agilent ChemStation software. Percent aggregation was calculated as [PAaggregate/PAtotal]*100, where PA=integrated peak area.
In general terms: SEC sorts molecules by how far they enter the pores of the column.

The target of a further series is human mesothelin (Homo sapiens, UniProt Q13421). The experiment in a line: ELISA, mesothelin. Particulars: MORAb-009 and its ADCs. The format is binding. As to the method: as §2, with “Recombinant human mesothelin was diluted to 1 μg/mL in coating buffer (50 mM carbonate-bicarbonate buffer, pH 9.6), and coated onto 96-well Maxisorp black plates (Thermo, Cat No. 43711, 100 μL/well) at 4° C., overnight. Coating” for “Coating”

The nature of series [3]: DAR analysis by LC-MS (UPLC/ESI-MS, reverse-phase LC-MS). Particulars: reverse-phase LC-MS. As to the method: ADCs were deglycosylated using PNGase F (New England BioLabs). G7 buffer (10 μL) and PNGase F (2 μL) were added to the mAb (90 μL, 1 mg/mL in DPBS). The reaction was incubated in a Discover microwave (CEM) for 2 cycles: (1) microwave power 10 W, 37° C., 10 min, followed by a 5-min pause; (2) microwave power 2 W, 37° C., 10 min. A portion of the sample was reduced by adding DTT to a final concentration of 20 mM, followed by incubation at 60° C. for 3 min. Samples were then analyzed using a Waters Acquity Ultra Performance Liquid Chromatography (UPLC) and quadrupole time of flight (Q-Tof) Premier mass spectrometer. Samples (0.5-2 μg each) were injected onto a MassPrep™ micro desalting column at 65° C., eluted from the column with a 5 min equilibration in 95% of mobile phase A, a 10 min gradient (5-90% B), and a 10 min re-equilibration in 95% of mobile phase A, at 0.05 mL/min. Mobile phase A was 0.1% formic acid in water. Mobile phase B was 0.1% formic acid in acetonitrile. The Q-Tof mass spectrometer was run in positive ion, V-mode with detection in the range of 500-4000 m/z. The source parameters were as follows: capillary voltage, 2.25 kV (intact antibody)-2.50 kV (reduced antibody); sampling cone voltage, 65.0 V (intact antibody) or 50.0 V (reduced antibody); source temperature, 100° C.; desolvation temperature, 250° C.; desolvation gas flow, 550 L/hr. The protein peak was deconvoluted using the MassLynx® MaxEnt 1 function. Relative intensities of each unconjugated, singly-conjugated, and multiply-conjugated heavy and light chain masses were combined to calculate the overall DAR using the formula:
2[[ILC+1+2(ILC+2)+3(ILC+3)+ . . . n(ILC+n)]/ΣILCtot]+2[[IHC+1+2(IHC+2)+3(IHC+3)+ . . . n(IHC+n)]/ΣIHCtot]
where ILC+1 is mass intensity of light chain conjugated with one cytotoxin, ILC+2 is mass intensity of light chain conjugated with two cytotoxins, etc. IHC are the intensities from the corresponding conjugated heavy chains, and ΣILCtot and ΣIHCtot are the combined intensities of all unconjugated and conjugated light chains and heavy chains, respectively.
DAR was also analyzed using an LC-MS method with a Waters Alliance HPLC with SQD/PDA detection. Samples were injected onto a Proteomix RP-1000 column ([…], 1000A, 4.6 mm×15 cm, Sepax) at 65° C., and eluted with a 3 min equilibration in 25% B, a 27 min linear gradient from 25%-55% B, a 5 min hold at 55% B, a 1 min change to 90% B, a 5 min hold at 90% B, a 1 min change back to 25% B, and a 5 min reequilibration at 25% B. Mobile phase A was 0.1% TFA in water, and mobile phase B was 0.1% TFA in acetonitrile. The elute was then split (10:1) into PDA and SQD detectors. The SQD detector was set up as ES positive, capillary voltage at 3.2 kV, cone voltage at 40 V, extractor at 3 V, and RF lens at 0.2 V, source temperature at 150° C., and desolvation temperature at 250° C. Mass data was acquired at 200-2000 m/z for 40 min, continuum mode, scan time 1 second. Data was analyzed and deconvoluted offline using MassLynx and MaxEnt1. DAR was calculated using the formula:
2[[AUCLC+1+2(AUCLC+2)+3(AUCLC+3)+ . . . n(AUCLC+n)]/[…]]+2[[AUCHC+1+2(AUCHC+2)+3(AUCHC+3)+ . . . n(AUCHC+n)]/ΣAUCHCtot]
where AUCLC+1 is the area under the curve of the light chain peak conjugated with one cytotoxin, AUCLC+2 is the area under the curve of the light chain peak conjugated with two cytotoxins, etc. AUCHC is the area under the curve of the corresponding heavy chains, and ΣAUCLCtot and ΣAUCHCtot are the combined area under the curve of all unconjugated and conjugated light chains and heavy chains, respectively.

Sequence of Recombinant human folate receptor alpha (P15328 25-234): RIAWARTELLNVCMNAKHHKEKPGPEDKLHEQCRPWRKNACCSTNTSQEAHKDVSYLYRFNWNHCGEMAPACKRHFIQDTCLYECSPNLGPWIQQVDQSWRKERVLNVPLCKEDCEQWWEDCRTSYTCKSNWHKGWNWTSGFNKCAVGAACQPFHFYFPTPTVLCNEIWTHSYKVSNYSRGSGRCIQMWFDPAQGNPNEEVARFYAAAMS

As a reminder, the IC50 is the concentration that inhibits the measured activity by half. Turning to MORAb003-DBCO-PEG2 eribulin, the concentration for half-maximal inhibition (IC50) with IGROV1 cells is 4.25 nM; with NCI-H2110 cells it was 38.1 nM; in the series on A431 cells it was greater than 100 nM. Also, the “Antigen Binding ELISA, EC50” value in series [1] came out at 0.0191 µg/mL.
In the case of MORAb003-DBCO-PEG4 VCP eribulin, the IC50 with IGROV1 cells was 0.038 nM; with NCI-H2110 cells it was 4.28 nM; in the series with A431 cells it was greater than 100 nM. In addition, the “Antigen Binding ELISA, EC50” value in series [1] is 0.016 µg/mL.
For MORAb003-DBCO-PEG4 eribulin, the results for the 50% inhibitory concentration (IC50) in the series with IGROV1 cells, in the series on NCI-H2110 cells and with A431 cells were 1.32 nM, 46.3 nM and greater than 100 nM, respectively. Also, in series [1], the “Antigen Binding ELISA, EC50” value came out at 0.0133 µg/mL.
For the substance MORAb003-PEG2-eribulin, the IC50 in the series with IGROV1 cells is 0.33 nM; in the series on NCI-H2110 cells, 38.3 nM; in the series on A431 cells it was greater than 100 nM. The “Antigen Binding ELISA, EC50” value in series [1] came to 0.00696 µg/mL.
Take MORAb003-PEG4-eribulin: the IC50 with IGROV1 cells is 0.277 nM; in the series with NCI-H2110 cells it was 21.6 nM; in the series with A431 cells it was greater than 100 nM. The “SEC-HPLC Analysis % Frag.” value in series [2] is reported as 0%. Besides, the “SEC-HPLC Analysis % Monomer” value in series [2] is on record as 89.76%. For the same substance, the “Antigen Binding ELISA, EC50” value in series [1] worked out at 0.00931 µg/mL.
For orientation: EC50 means the concentration that produces a half-maximal response. Take MORAb009-DBCO-PEG4 eribulin: the “Antigen Binding ELISA, EC50” value in the series with human mesothelin is 0.0452 µg/mL. Besides, the half-maximal effective concentration (EC50) with human mesothelin (read-out: Antigen Binding ELISA, EC50) stood at 0.3 nM. Besides, the concentration for half-maximal inhibition (IC50) with IGROV1 cells stood at 61.5 nM. Further, the IC50 in the series with NCI-H2110 cells came out at 39.3 nM. In addition, in series [2], the “SEC-HPLC Analysis % Aggr.” value was determined as 1.12%, the “SEC-HPLC Analysis % Frag.” value stood at 0% and the “SEC-HPLC Analysis % Monomer” value is given as 98.88%. The “DAR (LC-MS)” value in series [3] stood at 2.8. Moreover, the 50% inhibitory concentration (IC50) in the series on A431 cells was greater than 100 nM.
